# Reference: article PMC12808100, “The non-catalytic DNA polymerase ε subunit is an NPF motif recognition protein” (Nature Communications, 2025)
# B1: ABT1 (protein, UniProt Q9ULW3 1-272, looked up)
# Activator of basal …: MEAEESEKAATEQEPLEGTEQTLDAEEEQEESEEAACGSKKRVVPGIVYLGHIPPRFRPLHVRNLLSAYGEVGRVFFQAEDRFVRRKKKAAAAAGGKKRSYTKDYTEGWVEFRDKRIAKRVAASLHNTPMGARRRSPFRYDLWNLKYLHRFTWSHLSEHLAFERQVRRQRLRAEVAQAKRETDFYLQSVERGQRFLAADGDPARPDGSWTFAQRPTEQELRARKAARPGGRERARLATAQDKARSNKGLLARIFGAPPPSESMEGPSLVRDS
# Columns and labels:
# POLE2 WT = test: Proximity labeling MS, MAC3-tagged POLE2 WT in Flp-In T-REx 293 cells; format: cell-based, human; conditions: bait POLE2_WT
# POLE2 E520A = test: Proximity labeling MS, POLE2 E520A; conditions: bait POLE2_E520A
# POLE2 Y311F = test: Proximity labeling MS, POLE2 Y311F; conditions: bait POLE2_Y311F
# POLE2 S522A = test: Proximity labeling MS, POLE2 S522A; conditions: bait POLE2_S522A
molecule,measurement,setting,value
B1,AvgSpec,POLE2 WT; mean of 6 replicates,7.33
same,Spec,POLE2 WT; replicate 1,9
same,Spec,POLE2 WT; replicate 2,11
same,Spec,POLE2 WT; replicate 3,13
same,Spec,POLE2 WT; replicate 4,4
same,Spec,POLE2 WT; replicate 5,2
same,Spec,POLE2 WT; replicate 6,5
same,SpecSum,POLE2 WT; sum of 6 replicates,44
same,FoldChange,POLE2 WT; versus control counts,6.05
same,AvgSpec,POLE2 E520A; mean of 3 replicates,9.33
same,Spec,POLE2 E520A; replicate 1,14
same,Spec,POLE2 E520A; replicate 2,7
same,Spec,POLE2 E520A; replicate 3,7
same,SpecSum,POLE2 E520A; sum of 3 replicates,28
same,FoldChange,POLE2 E520A; versus control counts,7.7
same,AvgSpec,POLE2 Y311F; mean of 3 replicates,9.67
same,Spec,POLE2 Y311F; replicate 1,11
same,Spec,POLE2 Y311F; replicate 2,8
same,Spec,POLE2 Y311F; replicate 3,10
same,SpecSum,POLE2 Y311F; sum of 3 replicates,29
same,FoldChange,POLE2 Y311F; versus control counts,7.97
same,AvgSpec,POLE2 S522A; mean of 3 replicates,14.33
same,Spec,POLE2 S522A; replicate 1,12
same,Spec,POLE2 S522A; replicate 2,14
same,Spec,POLE2 S522A; replicate 3,17
same,SpecSum,POLE2 S522A; sum of 3 replicates,43
same,FoldChange,POLE2 S522A; versus control counts,11.82
